Data on one substance can be found in paper PMC3245798.

The test deals with soluble H ectodomain (sH, amino acids 60-617) of measles virus (measles virus) (UniProt P08362). Put plainly: SPR. In general terms: SPR reads the build-up and loss of mass on a sensor chip optically.
UniProt P08362, sequence (P08362 60-617 limits assumed): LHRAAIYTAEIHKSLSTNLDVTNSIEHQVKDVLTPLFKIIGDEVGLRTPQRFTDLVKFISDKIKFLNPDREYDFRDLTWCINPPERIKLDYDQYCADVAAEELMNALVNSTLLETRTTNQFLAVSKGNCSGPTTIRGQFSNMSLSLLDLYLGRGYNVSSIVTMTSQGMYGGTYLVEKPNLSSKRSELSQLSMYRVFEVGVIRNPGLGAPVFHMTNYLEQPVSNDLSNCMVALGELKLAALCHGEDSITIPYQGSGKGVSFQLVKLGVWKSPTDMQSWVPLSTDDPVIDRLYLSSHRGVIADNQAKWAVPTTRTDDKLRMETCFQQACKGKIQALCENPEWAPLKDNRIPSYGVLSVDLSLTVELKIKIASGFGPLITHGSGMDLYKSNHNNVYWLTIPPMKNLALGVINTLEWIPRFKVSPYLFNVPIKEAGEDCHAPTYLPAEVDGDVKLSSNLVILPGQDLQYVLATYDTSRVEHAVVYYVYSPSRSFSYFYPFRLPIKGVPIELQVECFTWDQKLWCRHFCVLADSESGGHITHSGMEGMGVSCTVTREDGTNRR

In the case of “soluble nectin-4 ectodomain fused to human IgG1 Fc domain (N4VCC-Fc) (from UniProt Q96NY8 32-349) (Fc fusion)”, the kon relative to that of SLAM and H was determined as 5 fold.
